Source: article PMC6347689, “Native mass spectrometry reveals the conformational diversity of the UVR8 photoreceptor” (Proceedings of the National Academy of Sciences of the …, 2019)
Each block holds one binder with its values, some of them ahead of it.

Tests used:
[1] = target: the molecule itself; assay: native MS; native ion mobility MS with nESI, sample in 250 mM ammonium acetate pH 6.8, 5–20 μM UVR8, in the absence of UV-B light
[2] = target: T1, full-length UVR8 (UV … LOCUS8) (Arabidopsis thaliana), Q9FN03; assay: as above; settings: remark: other sources report otherwise
T1 chain: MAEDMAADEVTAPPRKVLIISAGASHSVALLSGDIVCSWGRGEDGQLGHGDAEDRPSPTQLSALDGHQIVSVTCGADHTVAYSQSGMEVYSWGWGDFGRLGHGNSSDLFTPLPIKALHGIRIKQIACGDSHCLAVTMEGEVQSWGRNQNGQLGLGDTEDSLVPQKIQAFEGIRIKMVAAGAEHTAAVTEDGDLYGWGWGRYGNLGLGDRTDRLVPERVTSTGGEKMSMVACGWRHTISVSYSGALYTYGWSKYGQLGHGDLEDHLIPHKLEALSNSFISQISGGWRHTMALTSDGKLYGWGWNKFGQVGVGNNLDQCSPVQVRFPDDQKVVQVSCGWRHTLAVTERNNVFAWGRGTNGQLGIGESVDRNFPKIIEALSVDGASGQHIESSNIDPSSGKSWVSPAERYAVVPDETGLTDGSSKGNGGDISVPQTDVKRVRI

B1: UVR8 core domain (residues 12–381, UVR8^12–381) (domain or fragment, Arabidopsis thaliana, UniProt Q9FN03 12-381, looked up)
chain: APPRKVLIISAGASHSVALLSGDIVCSWGRGEDGQLGHGDAEDRPSPTQLSALDGHQIVSVTCGADHTVAYSQSGMEVYSWGWGDFGRLGHGNSSDLFTPLPIKALHGIRIKQIACGDSHCLAVTMEGEVQSWGRNQNGQLGLGDTEDSLVPQKIQAFEGIRIKMVAAGAEHTAAVTEDGDLYGWGWGRYGNLGLGDRTDRLVPERVTSTGGEKMSMVACGWRHTISVSYSGALYTYGWSKYGQLGHGDLEDHLIPHKLEALSNSFISQISGGWRHTMALTSDGKLYGWGWNKFGQVGVGNNLDQCSPVQVRFPDDQKVVQVSCGWRHTLAVTERNNVFAWGRGTNGQLGIGESVDRNFPKIIEALSVDG
notes: Homodimer in the dark, monomer after UV-B; also called truncated UVR8; source: E. coli Rosetta 2 (DE3) pLysS, purified (Ni-NTA, Strep-Tactin XT, cleaved from the resin with SUMO protease); not shown: 7xHis, N-terminal, cleaved; Strep II, N-terminal, cleaved; SUMO, N-terminal, cleaved
- stoichiometry N [1]: 2

- stoichiometry N [2]: 2
B2: full-length UVR8 (UV … LOCUS8), Q9FN03 1-440 (natural protein)
chain: T1 chain
